Data published in patent US20250210128A1, “COMPUTER-IMPLEMENTED DESIGN OF PEPTIDE:RECEPTOR SIGNALING COMPLEXES FOR ENHANCED CHEMOTAXIS” (Ecole Polytechnique Federale de Lausanne (EPFL), priority 2022, published 2025).

What was measured:
[1] = biological target: CLdes CXCR4 sensor (Cdes2 design combined with H113N) (human); assay: cell-based or functional assay
[2] = biological target: WT CXCR4 with an N-terminal 3xHA-tag (human) (UniProt P61073); assay: cell-based or functional assay
Sequence of WT CXCR4 with an N-terminal 3xHA-tag (human) (P61073 other isoform, or with tags, fused parts or gaps): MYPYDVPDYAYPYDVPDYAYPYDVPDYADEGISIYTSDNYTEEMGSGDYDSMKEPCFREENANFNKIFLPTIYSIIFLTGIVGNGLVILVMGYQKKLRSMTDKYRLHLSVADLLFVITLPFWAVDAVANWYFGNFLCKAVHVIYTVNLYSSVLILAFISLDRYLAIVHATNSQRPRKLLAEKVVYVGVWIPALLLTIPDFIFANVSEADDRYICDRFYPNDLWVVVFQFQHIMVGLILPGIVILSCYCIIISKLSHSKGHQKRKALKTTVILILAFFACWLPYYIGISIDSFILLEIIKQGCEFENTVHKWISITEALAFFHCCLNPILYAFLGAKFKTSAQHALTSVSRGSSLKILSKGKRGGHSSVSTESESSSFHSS

For “full-length wild-type CXCL12 chemokine (from UniProt P48061 22-93) (ligand)”, the migration of transduced primary human T cells (Boyden chamber, migration index over no-chemoattractant control) [1] was < 5 fold and the migration of transduced primary human T cells (Boyden chamber, migration index over no-chemoattractant control) [2] was 1.5 fold.
